# “And” between values parts separate entries of the source, which are not always exact repeats. Identical values can stand only once.
# B1: Rat Serum Albumin (other, UniProt P02770 25-608, looked up)
# chain: EAHKSEIAHRFKDLGEQHFKGLVLIAFSQYLQKCPYEEHIKLVQEVTDFAKTCVADENAENCDKSIHTLFGDKLCAIPKLRDNYGELADCCAKQEPERNECFLQHKDDNPNLPPFQRPEAEAMCTSFQENPTSFLGHYLHEVARRHPYFYAPELLYYAEKYNEVLTQCCTESDKAACLTPKLDAVKEKALVAAVRQRMKCSSMQRFGERAFKAWAVARMSQRFPNAEFAEITKLATDVTKINKECCHGDLLECADDRAELAKYMCENQATISSKLQACCDKPVLQKSQCLAEIEHDNIPADLPSIAADFVEDKEVCKNYAEAKDVFLGTFLYEYSRRHPDYSVSLLLRLAKKYEATLEKCCAEGDPPACYGTVLAEFQPLVEEPKNLVKTNCELYEKLGEYGFQNAVLVRYTQKAPQVSTPTLVEAARNLGRVGTKCCTLPEAQRLPCVEDYLSAILNRLCVLHEKTPVSEKVTKCCSGSLVERRPCFSALTVDETYVPKEFKAETFTFHSDICTLPDKEKQIKKQTALAELVKHKPKATEDQLKTVMGDFAQFVDKCCKAADKDNCFATEGPNLVARSKEALA
# notes: mature; 'mature' inferred from purified serum protein; also called RSA; rat SA
# How the values were obtained:
# [1] = molecular target: T1, DOM7h-11-15/Exendin-4 fusion DMS number 7143; assay: SPR (BIAcore); KD as listed in PK table
# T1 construct: Exendin-4 - (G4S)3 - AlbudAb, made in HEK293E; also called DMS7143
# [2] = molecular target: T2, mouse serum albumin (mouse, UniProt P07724 25-608); assay: SPR (BIAcore), albumin amine-coupled to CM5 chip; no KD given
# T2 construct: mature; 'mature' inferred from purified serum protein; also called MSA; mouse SA
# [3] = molecular target: T3, Human Serum Albumin (human, UniProt P02768 25-609); assay: as above
# T3 construct: also called HSA; human SA
# [4] = molecular target: T4, Cynomolgus monkey Serum Albumin (Cynomolgus monkey, UniProt A2V9Z4 25-608); assay: as above
# T4 construct: mature; 'mature' inferred from purification out of serum; also called CSA; cyno serum albumin
# [5] = molecular target: B1; assay: as above
# [6] = molecular target: T2, mouse serum albumin; assay: SPR (BIAcore); multiple independent measurements
# [7] = molecular target: T2, mouse serum albumin; assay: SPR (BIAcore); multiple independent measurements (first of two values of 12)
# [8] = molecular target: T2, mouse serum albumin; assay: SPR (BIAcore); multiple independent measurements (second of two values of 12)
# [9] = molecular target: T2, mouse serum albumin; assay: SPR (BIAcore), albumin amine-coupled to CM5 chip
# [10] = molecular target: T3, Human Serum Albumin; assay: SPR (BIAcore), albumin amine-coupled to CM5 chip
# [11] = molecular target: T4, Cynomolgus monkey Serum Albumin; assay: SPR (BIAcore), albumin amine-coupled to CM5 chip
# [12] = molecular target: B1; assay: SPR (BIAcore), albumin amine-coupled to CM5 chip
binder,measurement,setting,value
B1,Kd,[1],273 nM
"DOM7r31 (other, Anti-serum albumin VH dAb (VH AlbudAb)) VH: EVQLLESGGGLVQPGGSLRLSCTASGFTFRHYRMGWVRQAPGKGLEWVSWIRPDGTFTYYADSVKGRFTISRDNSKNTLYLQMNSLRAEDTAVYYCAKSYMGDRFDYWGQGTLVTVSS",binding result,[2],binds
same,binding result,[3],binds
same,binding result,[4],binds
same,binding result,[5],binds
"DOM7r-31-14 (other, Anti-serum albumin VH dAb (VH AlbudAb)) VH: EVQLLESGGGLVQPGGSLRLSCTASGFTFRHYRMGWVRQAPGKGLEWVSWIRPDGTFTYYADSVKGRFTISRDNSKNTLYLQMNSLRAEDTAVYYCAKSYMADRFDYWGQGTLVTVSS",Kd,[6],6 nM and 14.2 nM
same,Kd,[7],12 nM
same,Kd,[8],12 nM
"DOM7r-92-4 (other, Anti-serum albumin VH dAb (VH AlbudAb); also called DOM7h-92-4) VH: EVQLLESGGGLVQPGGSLRLSCAASGFTFDTSSMLWVRQAPGKGLEWVSVIHQSGTPTYYADSVKGRFTISRDNSKNTLYLQMNSLRAEDTAVYYCAKFPSTHGKFDYWGQGTLVTVSS",Kd,[9],110 nM
same,Kd,[10],130 nM
same,Kd,[11],98 nM
same,Kd,[12],260 nM

# Reference: patent US20160052998A1 (GlaxoSmithKline, published 2016)
